Source: the supplement of paper PMC7125110
± gives the standard error. Variants at the floor of the assay were thinned out.

B1: glmS ribozyme (parent)
chain: AUAAAAGCGCCAGAACUACAGAAAUGUAGUUGACGAGGAGGAGGUUUAUCGAAUUUUCGGCGGAUGCCUCCAAA

Tests used:
Details in all cases: with glucosamine-6-phosphate
glucosamine-6-phosphate [1] = variants of: B1; assay: self-cleavage kobs at 640 uM GlcN6P; higher = faster cleavage; RNA array
Outline: (§1)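 Tiles of sequenced MiSeq chips were imaged over ~14 h at 37 °C. On them, barcoded ribozyme variants had been transcribed in situ by E. coli RNA polymerase and were tracked via a hybridised Cy3 probe while glucosamine-6-phosphate (40 μM to 10 mM) in HEPES/KCl/Mg(OAc)2 buffer flowed in. Per-tile medians, normalised to baseline and to non-cleaving reference variants, were fit to one- or two-exponential decays for kobs, and weighted Michaelis–Menten fits gave kcat and KM.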

glucosamine-6-phosphate [2] = variants of: B1; assay: self-cleavage kobs at 2500 uM GlcN6P; higher = faster cleavage; RNA array
Outline: as §1

glucosamine-6-phosphate [3] = variants of: B1; assay: self-cleavage kobs at 10000 uM GlcN6P; higher = faster cleavage; RNA array
Outline: as §1

| Variant | self-cleavage kobs at 640 uM GlcN6P (glucosamine-6-phosphate [1]) [s⁻¹] | self-cleavage kobs at 2500 uM GlcN6P (glucosamine-6-phosphate [2]) [s⁻¹] | self-cleavage kobs at 10000 uM GlcN6P (glucosamine-6-phosphate [3]) [s⁻¹] |
| --- | --- | --- | --- |
| AUAAAAGCGCCAGAACUACAGAAAUGUAGUUGACGAGGAUGAGAUUUAUGGAAUUUUCGGCGGAUGCCUCGAAA | < 1e-05 | < 1e-05 |  |
| AUAAAAGCGCCAGAACUACAGAAAUGUAGUUGACGAGGUGGAGGUUUAUCGAAUUAUCGGCGGAGGCCUCCAAA | 0.000165 ± 4.5e-05 |  | 0.00113 ± 0.00025 |
| AUAAAAGCGCCAGAACUACAGAAAUGUAGUUGACGAGGAGAAGGUUUAUCGAAUUUUUGGCGGAUGCCUGCAAA | < 1e-05 | < 1e-05 |  |
| AUAAAAGCGCCAGAACUACAGAAAUGUAGUUGACGAGGAGGCGGUUUAUCGAAUUUUCGGCGGUUGCCGCCAAA | 4.76e-05 ± 1.2e-05 | 9.13e-05 ± 1.9e-05 |  |
| AUAAAAGCGCCAGAACUACAGAAAUGUAGUUGACGAGGAGGCCGUUUAUCGAAUUUUCGGCGGAUGCCUUCAAA | < 1e-05 |  |  |
| AUAAAAGCGCCAGAACUACAGAAAUGUAGUUGACGAGGAGAAGGUUUAUCCAAUUUUCGGCGAAUGACUCCAAA | < 1e-05 |  |  |
| AUAAAAGCGCCAGAACUACAGAAAUGUAGUUGACGAGUAGGAGGUUUAUCGCCUUUUCGGCGGAUGCAUCUAAA | 0.000617 ± 0.00024 |  |  |
| AUAAAAGCGCCAGAACUACAGAAAUGUAGUUGACGAGGAGGUGGUUUAUCGAUUUUUCCGCCGAUGCCUCCAAA | < 1e-05 | < 1e-05 |  |
| AUAAAAGCGCCAGAACUACAGAAAUGUAGUUGACGAGGACGAGGUUUAUCGAAUUUUCGGCGGACGCCUCCAAA | 4.51e-05 ± 1.9e-05 |  | 0.000172 ± 3.4e-05 |
| AUAAAAGCGCCAGAACUACAGAAAUGUAGUUGACGAGGAAGAGGUUUAUCGCAUUUUCAGCGGAUGCUUCCAAA | < 1e-05 |  |  |
| AUAAAAGCGCCAGAACUACAGAAAUGUAGUUGACGAGGGGGAGGUUUAUCGAAUUUUCGACGGAUGCCGCCAAA | < 1e-05 |  |  |
| AUAAAAGCGCCAGAACUACAGAAAUGUAGUUGACGAGGACCAGGUUUAUCGAAUUUUCGGCGGAUGCAUCCAAA | < 1e-05 |  |  |
| AUAAAAGCGCCAGAACUACAGAAAUGUAGUUGACGAGAAGGAGGUUUAUCGAAUUUUCCGCUGAUGCCUCCAAA | < 1e-05 |  |  |
| AUAAAAGCGCCAGAACUACAGAAAUGUAGUUGACGAGGAUGAGGUUUAUCGAACUUUCGGCGGAUGCCUCCAAA | 0.000738 ± 0.00016 | 0.00431 ± 0.0006 |  |
| AUAAAAGCGCCAGAACUACAGAAAUGUAGUUGACGAGGACGAGGUUCAUCGAAUUUUCGGCGGAUGCGUCCAAA | < 1e-05 |  |  |
| AUAAAAGCGCCAGAACUACAGAAAUGUAGUUGACGAGGUGGAGGUUUAUCGAAUUUUCGGCGCAUGCCUCGAAA | < 1e-05 | < 1e-05 |  |
| AUAAAAGCGCCAGAACUACAGAAAUGUAGUUGACGAGCAGGAGGCUUAUCGAAUUUUCGGCGGAUGCCUACAAA | < 1e-05 | < 1e-05 |  |
| AUAAAAGCGCCAGAACUACAGAAAUGUAGUUGACGAGAAGGAGGUUUAUCGAAUUUACGGCGGAUUCCUACAAA | 6.22e-05 ± 2.6e-05 | 6.05e-05 ± 2.3e-05 |  |
| AUAAAAGCGCCAGAACUACAGAAAUGUAGUUGACGAGGUGGAGGUUUAUCGACUCUUCGGCGGAUGCCUCCAAA | 0.000547 ± 9.5e-05 | 0.00232 ± 0.00029 |  |
| AUAAAAGCGCCAGAACUACAGAAAUGUAGUUGACGAGGCGGAGGUUUAUCGAAUUUUCCGCGGAUGCUUCCAAA | < 1e-05 |  |  |
| AUAAAAGCGCCAGAACUACAGAAAUGUAGUUGACGAGGAGAAGGUUUAUCGAAUUUUCGGCGGACGCCUCCAAA | < 1e-05 |  |  |
| AUAAAAGCGCCAGAACUACAGAAAUGUAGUUGACGAGCAGGAGGUUUAUCUAAUUUUCAACGGAUGCCUCCAAA | < 1e-05 |  |  |
| AUAAAAGCGCCAGAACUACAGAAAUGUAGUUGACGAGUAGGAGGUUUAUCGAAUUUACGGCGGAUGCCUCGAAA | < 1e-05 | < 1e-05 |  |
| AUAAAAGCGCCAGAACUACAGAAAUGUAGUUGACGAGGGGGAGGUUUAACGAAUUUUCGGCGGAUGCUUCCAAA | < 1e-05 |  |  |
| AUAAAAGCGCCAGAACUACAGAAAUGUAGUUGACGAUGAGGAGGUUUAUCAAAUUUUCGGCGGAUCCCUCCAAA | < 1e-05 |  |  |
